Reference: the DeepSol protein solubility set

Assay: soluble on expression in E. coli; label from the status in PepcDB or PDB records

Sequence | soluble on expression in E. coli
MGSDKIHHHHHHRPYTPDYEIVPEYTNADTWKAYEAFNEHLLDQNKFIYKSSTADKAAVDRWNGAAAIWCQPTYWDMAMNAYKRAKAEGDTQKEQKFKQLCDDLFAGNKAHYANFDFDDNNENTGWFIYDDIMWWTVTLARAYELFGVEEYLSLSEESFGRVWYGSEKVGDTGSYADPEKGLGGGMFWQWQPIKNPNPNEADHGKMACINFPTVVAALTLYNNVPTGRTESTDSHPSYQTKEQYLAKGKEIYAWAVENLVDVTTGQVADSRHGNGNPAWKDHVYNQASYIGASVLLYKATGEKQYLDNAVMAADYTMNTISGTFDLLPFETGAEQGIYTAVFAQYIAMLVYDCDQTQYIPFVKRNINYGWANRDKTRDICGGDYTKLQVEGDAVESYSASGIPALMLLFPTDK | not soluble
EDYEKVPLPNSVFVNTTESCEVERLFKATSPRGEPQDGLYCIRNSSTKSGKVLVVWDETSNKVRNYRIFEKDSKFYLEGEVLFVSVGSMVEHYHTHVLPSHQSLLLRHPYGYT | soluble
MGSDKIHHHHHHMFLSSMKLGIQSYSLRKLTYENALKVMSELGISYVEAFPRHLPPSSNSVKDIINLHKENGVKVIAHGVNHLKSDKKELRSIFDFANKVEIEVITADPDEDCLNLMSDLVKEYDIKVAIHNHGPYHRWGSYKKIYEFTKNLDYRVGMCLDLAHLFRYGENPIEAVNTLRDRIHDIHVKDVNNKGEDVIVGSGILDVKGVIGKVKELNLDIPLMIEYEPEPENPLPGIVKSLEYVKKLL | not soluble
SVFYFTSSSVNSSAYTIYMGKDKYENEDLIKHGWPEDIWFHVDKLSSAHVYLRLHKGENIEDIPKEVLMDCAHLVKANSIQGCKMNNVNVVYTPWSNLKKTADMDVGQIGFHRQKDVKIVTVEKKVNEILNRLEKTKVERFPDLAAEKECRDREERNEKKAQIQEMKKREKEEMKKKREMDELRSYSSLMKVENMSSNQDGNDSDEFM | soluble
MAQPSTTYKFELNLTDLDRGVYESVKQTIARHPSETEERMTVRLLAYAFWYNEQLAFGRGLSDVDEPALWEKSLDDRVLHWIEVGQPDADRLTWCSRRTERTSLLAYGSLRVWEGKVIPAIKNLKNVNIAAVPQDVLEVLAKDMPRVIKWDVMISEGTVFVTDDRGQHEVQLQWLTGERG | soluble
MNTTEFDGISHAEGLCDKEFIGKAISYLYRYGQIYIGKKIEPYGIGSGQFPFLMRLYREDGINQESLSDYLKIDKGTTARAIQKLVDEGYVFRQRDEKDRRSYRVFLTEKGKKLEPDMKKIASEWGEILFSSFDDRQRREITNSLEIMFENGLKIM | not soluble
MCEFKDFRRNIPCFKEYDENSFIGKWYDDGVWDDEEYWKLENDLIEVRKKYPYPMDIPRDIVIGIGTIIDFLMVQNWKLFEIKASTWLPKSVKINERYERFRVMLRYIFTDLDVEDWKFFYFPIQHSKGRLRRKV | not soluble
MGSDKIHHHHHHMTPLPSFRLSWPSALQRLCHAPAGKHMPAGAYQVHFPRLELVLSNRYHYSHEGCENASLSAQEALFIPAEHWTLPNWCANGEVLHILFDYARIGFSLVRSGPQGVISTHKESMVLAQRGSLNGMLDVLAGLCRDGADPEVLRLQGQALLALLQSLYDEARDSQWQQGGNLFRAICLYISEHLYAPLTREDVALRFSISATHLSRLFRQHLGLGFCEFLSHARLDLAKALLRQGQLPLSRVAARCGYADVNYFHRVFKQRFAMTPCAYRREFA | not soluble
RRTTNDGFHLLKAGGSCFALISGTANQVKCYRFRVKKNHRHRYENCTTTWFTVADNGAERQGQAQILITFGSPSQRQDFLKHVPLPPGMNISGFTASLDF | soluble
MSEVLTRGFRFRPADEEVTDYLMRKTQSPEFSCFIKTIDLYDKDPWVLGHVRDPCYNHYEWYYFVKKNPLGNEYLDKPRLNGFEHPRLKWDVLKQIHDALSSGQNVPPSVFTYGFRFHPTDQELLSLYLTPKAHSPDFSCFIRERESYMPWSHGFLNMLDLLFTRTVNGTTL | soluble
MDLKGGESMVDWKLMQEIIEAPGVSGYEHLGIRDIVVDVLKEVADEVKVDKLGNVIAHFKGSSPRIMVAAHMDKIGVMVNHIDKDGYLHIVPIGGVLPETLVAQRIRFFTEKGERYGVVGVLPPHLRRGQEDKGSKIDWDQIVVDVGASSKEEAEEMGFRVGTVGEFAPNFTRLNEHRFATPYLDDRICLYAMIEAARQLGDHEADIYIVGSVQEEVGLRGARVASYAINPEVGIAMDVTFAKQPHDKGKIVPELGKGPVMDVGPNINPKLRAFADEVAKKYEIPLQVEPSPRPTGTDANVMQINREGVATAVLSIPIRYMHSQVELADARDVDNTIKLAKALLEELKPMDFTP | soluble
MAHHHHHHMSLNLTDAADDRSYKEMEKYTVERVAGQGTFGTVQLARDKSTGSLVAIKKVIQDPRFKNRELQIMQHLARLRHPNIVMLKNYFYTVGGEGRRNDVYLNVVMEFVPETLHRTCRNYYRRMTNPPLILVKVFMFQLLRSIACLHIPVINICHRDIKPHNVLVDEQTGELKLCDFGSAKRLAADEPNVAYICSRYYRAPELIFGNQFYTTAVDIWSVGCIFAEMLLGEPIFCGENTSGQLREIVKILGKPTKEELHKLNGSSTEINANAKATPWENVFKQPLPAEVYDLCGKIFKYVPDQRITPLDALCHPFFNELREPTTKLPSGNPLPAHLYQFTPDEVEAMTEAQREYLLKK | not soluble
MIEIKHLKTLQALRNSGSLAAAAAVLHQTQSALSHQFSDLEQRLGFRLFVRKSQPLRFTPQGEVLLQLANQVLPQISRALQACNEPQQTRLRIAIECHSCIQWLTPALENFRASWPQVEMDFTSGVTFDPQPALQQGELDLVMTSDILPRSGLHYSPMFDFEVRLVLAPDHPLASKTQITPEDLASETLLIYPVQRSRLDVWRHFLQPAGISPLLKSVDNTLLLIQMVAARMGIAALPHWVVESVERQGLVVTKTLGDGLWSRLYAAVRDGDQRQAVTEAFIRSTRDHACDHLPFVRSAERPIFDAPTAKPGSQPRL | not soluble
MGSDKIHHHHHHMSDIPYQTIDTRALHRFAQPDRIAPAMYHDPALFEAELDRIFYRTWIWVAHDSELPNPGDFITTTIGRQPVIVVRDKTGEINVLQNRCRHRGATVCESHKGNAKGFTCPYHSWSYALDGTLRALPYGDGYEGVCEKGDLPLVKLRVGVYQGLIFASFNDDIEPLEDFLGGAKPWIDLFMKQGAGYPIKANGEHKFKFKGNWKIQLENTTDLYHFPVVHKSWMKSIDDETAAAITSFMTSEHAFCRALGNGHSLAVLMPELIDLDEDDGAPLPERFAPLAATLAERHAPDEVRRIVRSLLGVGFNLNLFPNLALSMAFFRVLRPISANETEIRHVALAMDGGPDEANRERLRIHEHFQGPFGFGSPDDAEAWERVQRGAHAGPDVPILVNRGLNRETTAANGEKTAHATDETGMREAYQQWRKLMEQA | not soluble
SLRSIMTPRGEISWVDAEQSEDEIRRQLLSSPHSLFPVCRGELDEIIGIVRAKEMLVALESGENVAALASASPAIVVPETLDPINLLGVLRRARGSFVIVTNEFGVVQGLVTPLDVLEAIAGEFPDADETPEIVIDGDGWLIKGSTDLHALQQALGLDPLINDDEDIATVAGLVISANGHIPRIGDVVSLPPLHFTVVEANDYRV | soluble
MGSDKIHHHHHHMGACQPNNSQLYIGIDGGGSKCRATIYTAEHQKLGTGVAGRANPLHGLEQTFLSITESTQLAIADAGLAPSTSQQLIAGIGLAGVNVSHYYQHIVNWQHPFKAMYLTTDLHTACIGAHNGEDGAVIITGTGSCGYAHVGDNTICLGGHGFALGDKGSGAWLGLKAVEHVLLALDGFACATSLTERLLSHFNALDAMGIVEQLAGQSSSAYAKLARSVLACAQEGDAVAISIVKEGAEYICKLARKLFAVNPSRFSMIGGLVEPLYPWLDEDVAKRISPALTPPEFGAFLFARKQFNTKA | not soluble
MNPDNLAKLIDELSAMFHPTERDRPHGRWVEAPKSAPPSKRRRSKTAYQLKITLNGIRPPIWRRVLVPGHATFHELHLIIQEAMGWEQAHLYEFDFGSVLIGIPDGWDSFQLEKELMDARRIPLQQWLTEEKQKFLYIYDFGDYWRHTVTVEKIETLPKPLERAACLKGKRACPPEDCGGVYGYLELLEAAAQKDSLADPELRELVDWMYDMKGEDFDPDAFDVEEANERLAYIRL | not soluble
MGSDKIHHHHHHMSLAPSVIEPAHEEDAFMDLLATSALDDPLAAARDATADMLRQRQGDHSLPQPFYNDPRVFALEMREIFEHEWLFVGMTCEIPAKGNYLTVQIGDNPIIVVRGDQGTIHAFHNVCRHRGSRLCTQAKGKVAKLVCPYHQWTYELDGRLLFAGQDMGEDFDLGAHGLKPVAVTHAGGFLFVSLADQPPAIDDFLATLDDYLAPYEMDNVKVAAESNIVEQANWKLVIENNRECYHCNGAHPELLNSLIEYDDTDDPRATPAYRDLVARQQAHWEQQQVPWALKRFGKRNRLTRTPMIEGVVSMTMDGRPASQRLMGRLPNPDMGSLRILHLPNSWNHFMGDHAVVFRVLPLGPQQTLVTTKWLVHRDAQEGVDYDPEWMRKVWDATTDQDRQLAEENQRGINSVAYQPGPYSRTYEFGVIDFVDWYSDTMLSRLDAEAPSLHIVQG | not soluble
SGELGEHRASLLSNPIPEVKTLGELKQGQNNGNLDLESEPFGSHWLQGSKATTGRTSEEPEEEIPPEEMAGEELPETSNLDGPLQQDLEVEVVEMSHLSITERTPSVSTAKGRKKRSRRLLELAKPKTNWQCLRDRPSVYWTERFIEDTTLTITVPVVSQRMEELSRPKRFYQEYYNNNRTTPIWSIPRSTLEYQASNRLKQLATPKVRNNIWSINMSEVSQVSRAAQMAVPTPRTLRLAKPRPPATLLEEWDPMPKPKPYVSDYNRLLQLATPKALSEKCVPDRSPQWEVLDVTKNAVASSRIISLAQPKIRKDLNEGYNPYYISPASLVAQASPRIYELATPKYITKKV | soluble
MGSDKIHHHHHHMSIARLREFVSDLTDIVGDDLHEAALLDRMRAPMTRLLAKDDWLPDAFAQPHPEFYQQYLLHCDPKQRFSVVSFVWGPGQKTPIHDHTVWGMIGMLRGSEHSTRFEVVGPDQPLRVAQTDVLEEGGIDVVSPSVGDVHQVSNVYDDRVSISIHVYGANIGRVRRHVYNGETGGVKEFVSGFSSSVVPNLWNAN | not soluble
MSLDHSRDQARRNIAVHYDLSNDLFAAFLDETMTYSCAMFTDLLAQPTPAWTELAAAQRRKIDRLLDVAGVQQGSHVLEIGTGWGELCIRAAARGAHIRSVTLSVEQQRLARQRVAAAGFGHRVEIDLCDYRDVDGQYDSVVSVEMIEAVGYRSWPRYFAALEQLVRPGGPVAIQAITMPHHRMLATRHTQTWIQKYIFPGGLLPSTQAIIDITGQHTGLRIVDAASLRPHYAETLRLWRERFMQRRDGLAHLGFDEVFARMWELYLAYSEAGFRSGYLDVYQWTLIREGPEGHHHHHH | not soluble
MSLSNYISIKGAKVNNLKNIDVNIPRNKLVVITGLSGSGKSSLAFDTGKTICPVCHGTRLKKEAGYVKVGGKSISQLVDLPIHDLKEFFRTLELDAHDTAIAKRILTEITNRINFLMDVGLGYLTLNRLSNSLSGGESQRINLATSLGSSLVGSLYILDEPSIGLHSRDTDRLIKVLRQLQELGNTVVVVEHDEEIIRAADYIIDIGPQAGRLGGQIVYQGNMNDLQRNSNSYTVRYLLGEEGHHHHHH | soluble
MMSVPQAREARRIDLGEMGWGEVQVDFYNPLVKRREIVMILHHELKPTPMRIMLRQKLAEVLGVDIKRIYIRYIKTGYGAGLSKVRVHVYDSPERALSFEPKYIIERNGGVNPFEEAEG | soluble
NDRFQWTSTLNGTYLKNRVERLSGGENDFINGSSPAAGMVDYATIIKPGEAIGTFWGYEWTGLDEKGHDTYTDVDGNQMIDGGDRKVIGKANPDFTLGWNNSLSYKNWDLNLFFNGSFGAKRLNLVRYTMASAEGNSRFVTLADAYLKGFDKIGSSATYPSLTEGGNNLQPVSTKWLENADFLRLENISLSYTFPKKTTGFADLRLTFSCQNLFTITGYKGMDPAGTTFSNSSVDVDAGIDMGAYPSPRTFTFGLRMNF | not soluble
